Legend:
Experiment in all cases: EMSA
ISW2 complex ((yeast)) = test system: ISW2 complex ((yeast))
[1] = test system: I-S-I complex (ISW2 with Snf2 ATPase domain) ((yeast))
[2] = test system: SWI/SNF complex ((yeast))

## 217 bp DNA
ISW2 complex ((yeast))
  Kd: 25 nM
[1]
  Kd: 31 nM
[2]
  Kd: 20 nM

From article PMC3378860
